Like-named read-outs stand apart in the source and are kept apart here. Values belong to the binder of their own block, whether it stands above or below them.
Columns and labels:
[1] = target: T1, human PD-1 expressed on cells (human, UniProt Q15116 25-288); assay: cell-based or functional assay
[2] = target: T1, human PD-1 expressed on cells; assay: cell-based or functional assay; remark: listed apart in the source
[3] = target: T2, recombinant human PD-1 (human, UniProt Q15116 25-167, limits assumed); assay: SPR, ProteOn XPR36
T2 construct: Soluble recombinant protein used in SPR; also called PDCD1; purified recombinant human PD-1
T2 sequence (Q15116 25-167 limits assumed): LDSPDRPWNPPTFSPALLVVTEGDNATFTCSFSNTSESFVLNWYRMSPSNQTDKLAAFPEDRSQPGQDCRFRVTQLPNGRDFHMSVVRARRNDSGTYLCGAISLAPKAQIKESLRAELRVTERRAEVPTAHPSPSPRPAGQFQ
Protocol: Kinetics and binding affinities were measured using the ProteOn™ XPR36 (Biorad, Hercules, CA) surface plasmon resonance optical biosensor using material generated from transient transfection following single column purification.

[4] = target: T1, human PD-1 expressed on cells; assay: cell-based or functional assay; remark: listed apart in the source
[5] = target: T1, human PD-1 expressed on cells; assay: cell-based or functional assay; remark: listed apart in the source
[6] = target: T2, recombinant human PD-1; assay: SPR, ProteOn XPR36, 1:1 binding model
Protocol: Antibody PD1AB-6-4P (antibody in IgG4Pro backbone disclosed in WO2017/058859 to Celgene) was also tested.

[7] = target: T3, cynomologous PD-1 (cynomolgus monkey, UniProt B0LAJ3 25-170); assay: SPR, ProteOn XPR36, 1:1 binding model
T3 construct: Used in SPR; also called cynomolgus PD-1; recombinant cynomologus PD-1
T3 sequence (B0LAJ3 entry or part of it limits assumed): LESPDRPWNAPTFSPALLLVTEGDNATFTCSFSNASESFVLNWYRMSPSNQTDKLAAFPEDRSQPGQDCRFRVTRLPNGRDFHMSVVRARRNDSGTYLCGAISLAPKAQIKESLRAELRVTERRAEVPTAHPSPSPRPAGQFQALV
Protocol: C) Affinity and kinetic data for the anti-PD-1 antibodies binding to cynomologous PD-1 were measured on the ProteOn™ XPR36 surface plasmon resonance optical biosensor, and globally fit to a 1:1 binding model (Table 11).

T1 sequence (Q15116 25-288): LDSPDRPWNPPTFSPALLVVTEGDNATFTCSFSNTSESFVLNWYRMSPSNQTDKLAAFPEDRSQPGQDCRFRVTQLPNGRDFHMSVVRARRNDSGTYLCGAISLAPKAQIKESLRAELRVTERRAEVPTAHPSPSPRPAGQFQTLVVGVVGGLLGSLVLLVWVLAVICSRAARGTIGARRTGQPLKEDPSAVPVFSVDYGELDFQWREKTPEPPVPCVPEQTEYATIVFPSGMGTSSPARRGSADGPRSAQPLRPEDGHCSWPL

Emax Values (%), inhibition of NFAT activity [1]: 45.5% | IC50 Values (nM), inhibition of NFAT activity [1]: 1.14 nM | Emax Values (%), Average, inhibition of IFNγ [2]: 19.5% | IC50 Values (pM), Average, inhibition of IFNγ [2]: 22 pM
B2: 306E6 (mouse IgG1 backbone) (antibody, V domains shown)
VH: EVQLQQSGPELVKPGSSVKISCKASGYTFTDYYVNWVKQSHGKSLEWFGDIHPNSGDTTYNQKFKDKATLTVDKSSSTAYMELRSLTSEDSAVYYCARRRYDYDGFAYWGQGTLVTVSA
VL: EIVMTQAAFSNPVTLGTSASISCRSSKSLLHRNGITYLYWYLQKPGQSPQLLIYEMSNLASGVPDRFSSSGSGTDFTLRISRVEAEDVGVYYCGQNLEFPLTFGAGTKLELK

Emax Values (%), inhibition of NFAT activity [1]: 43.7% | IC50 Values (nM), inhibition of NFAT activity [1]: 0.14 nM | Emax Values (%), Average, inhibition of IFNγ [2]: 74% | IC50 Values (pM), Average, inhibition of IFNγ [2]: 122 pM
B4: 723C2 (mouse IgG1 backbone) (antibody, V domains shown)
VH: EVQLVESGGGLVQPGGSLKLSCAASGFTFSDYYMSWVRQTPEKRLEWVAYISSGGGSSYYPDSVKGRFTISRDNTKNTLYLQMSSLKSEDTAVYYCARLPHYFAMDCWGQGTSVTVSS
VL: EIVLTQSPTTMAASPGEKITITCSASSSISSDYLHWYQQKPGFSPELLIYRTSNLASGVPARFSGSGSGTSYSLTIGSMEAEDVATYYCQQGTSLPRAFGGGTKLEIK

Emax Values (%), inhibition of NFAT activity [1]: 50.8% | IC50 Values (nM), inhibition of NFAT activity [1]: 0.82 nM | Emax Values (%), Average, inhibition of IFNγ [2]: 64.5% | IC50 Values (pM), Average, inhibition of IFNγ [2]: 995 pM
B5: 718C2 (mouse IgG1 backbone) (antibody, V domains shown)
VH: EVQLQQSGPELVKPGASVKMSCKASGYTFTSYVMHWVRQKPGQGLEWIGYIDPDNDGTKYNEKFKGKATLTSDKSSSTAYMELSSLTSEDSAVYYCAREAYYGGLYGMDYWGQGSSVTVSS
VL: DIVMSQSPSSLTVSVGEKVTMSCKSSQSLLYSSNQKIYLAWFQQKPGQSPKLLIYWASTRESGVPDRFTGSGSGTDFTLTISSVKAEDLAVYYCQQYYNSPLTFGAGTKLELK

Kd [3]: 3.98 nM | koff [3]: 0.000113 s⁻¹ | kon [3]: 28400 M⁻¹ s⁻¹ | Emax Values (%), inhibition of NFAT activity [1]: 44.4% | IC50 Values (nM), inhibition of NFAT activity [1]: 0.38 nM
B6: Chimeric 718C2 (antibody, V domains shown)
VH: EVQLQQSGPELVKPGASVKMSCKASGYTFTSYVMHWVRQKPGQGLEWIGYIDPDNDGTKYNEKFKGKATLTSDKSSSTAYMELSSLTSEDSAVYYCAREAYYGGLYGMDYWGQGSSVTVSS
VL: DIVMSQSPSSLTVSVGEKVTMSCKSSQSLLYSSNQKIYLAWFQQKPGQSPKLLIYWASTRESGVPDRFTGSGSGTDFTLTISSVKAEDLAVYYCQQYYNSPLTFGAGTKLELK
notes: Mouse variable domains in human IgG4Pro (Ser228Pro) backbone; also called 718C2 in human IgG4Pro backbone

Emax Values (%), Average, inhibition of IFNγ [4]: 49% | IC50 Values (pM), Geomean, inhibition of IFNγ [4]: 7.4 pM | Emax Values (%), Average, inhibition of IL-17A [5]: 69.8% | IC50 Values (pM), Geomean, inhibition of IL-17A [5]: 41.1 pM | Kd [6]: 2.73 nM | koff [6]: 0.000434 s⁻¹ | kon [6]: 159000 M⁻¹ s⁻¹ | Kd [7]: 26.5 nM | koff [7]: 0.00473 s⁻¹ | kon [7]: 178000 M⁻¹ s⁻¹
B14: Antibody A (antibody, human IgG4 S228P, kappa, V domains shown)
VH: EVQLVESGGGLVQPGGSLRLSCAASGFTFSDYYMSWVRQAPGKGLEWVSYISSGGGSKYYPDLVKGRFTISRDNAKNSLYLQMSSLRAEDTAVYYCARLPHYFAMDYWGQGTLVTVSS
VL: DIQMTQSPSSLSASVGDRVTITCSASQSISSDYLHWYQQKPGKAPKLLIYRTSNLASGVPSRFSGSGSGTDFTFTISSLQPEDIATYYCQQGTSLPRAFGQGTKLEIKR
notes: Humanized 723C2, human IgG4Pro/kappa

Further lines, the binder ahead of its results:

B1: 708E4 (mouse IgG1 backbone) (antibody, V domains shown)
VH: QIQLQQSGPELVKPGASVKISCKASGYTFTDYYLNWVKQRPGHGLEWIGWIYPGSSDTKHNENFKGKATLTVDTYSSTAYMQLGSLTSEDSAVYFCTRYSNFFFDYWGQGTTLTVSS
VL: DIVMTQSQKFLSTSVGDRVRVTCKASQNVVTYVAWYQQKPGQSPKSLIYSASYRYSGVPDRFTGSGSGTYFTLTINNVQFEDLAEYFCQQYHSYPYTFGGGTKLEIK
Emax Values (%), inhibition of NFAT activity [1]: 48.7% | IC50 Values (nM), inhibition of NFAT activity [1]: 0.17 nM | Emax Values (%), Average, inhibition of IFNγ [2]: 73.5% | IC50 Values (pM), Average, inhibition of IFNγ [2]: 915 pM

B3: 313C12 (mouse IgG1 backbone) (antibody, V domains shown)
VH: EVQLVESGGGLVKPGGSLKLSCAASGFTFSDYGMHWVRQTPEKGLEWIAYINSDSNTIYYADTVKGRFTISRDNARKTLYLQMTSLRSEDTAMYYCSPLVAPDYWGQGTTLTVSS
VL: DIVMTQSQKFMSTTVGDRVSITCKASQNVGTAVAWYQQKPGQSPKLLIYSVSNRYTGVPDRFTGSGSGTDFTLTISNMQSEDLADYFCQQYSSYPFTFGAGTKLELK
Emax Values (%), inhibition of NFAT activity [1]: 42.2% | IC50 Values (nM), inhibition of NFAT activity [1]: 0.37 nM | Emax Values (%), Average, inhibition of IFNγ [2]: 79% | IC50 Values (pM), Average, inhibition of IFNγ [2]: 459 pM

B7: 814E10 (mouse IgG1 backbone) (antibody, V domains shown)
VH: QIQLQQSGPELVKPGASVKISCKASGYTFTSYYIQWVKQRPGQGLEWIGWIYPGDGTTNYNENFKGKTTLTADKSSSTVYMLLSSLTSEDSAVYFCARYGLVPFDYWGQGTTLTVSS
VL: DIQMTQTTSSLSASLGDRVTISCSASQDIINYLNWYQQKPDGTVKLLIYSTSSLHSGVSLRFSGSGSGTDYSLTISNLEPEDVATYYCHQYSQLPYTFGGGTKLEIK
Emax Values (%), inhibition of NFAT activity [1]: 40.7% | IC50 Values (nM), inhibition of NFAT activity [1]: 0.25 nM | Emax Values (%), Average, inhibition of IFNγ [2]: 63% | IC50 Values (pM), Average, inhibition of IFNγ [2]: 74.2 pM

B8: Chimeric 820C3 (antibody, V domains shown)
VH: QIQLQQSGPELVKTGASVKISCKASGNTFNSNYIQWVKQRPGQGLEWIGWIYPGDGSTNYSEKFKGKTTLTADKSSSTAYMLVSSLTSEDSAVYFCARYGPVPFDYWGQGTTLSVSS
VL: DIQMTQTTSSLSASLGDRVTISCSASQDIFNYLNWYQQKPDGTVKLLIYYTSSLHSGVPSRFSGSGSGTDFSLTISNLEPEDIATYYCQQYSNLPYTFGGGTKLEIK
notes: Mouse variable domains in human IgG4Pro (Ser228Pro) backbone; also called chimeric 820C3 in IgG4Pro; 820C3-4P
Kd [3]: 2.71 nM | koff [3]: 0.000286 s⁻¹ | kon [3]: 106000 M⁻¹ s⁻¹ | Emax Values (%), inhibition of NFAT activity [1]: 40% | IC50 Values (nM), inhibition of NFAT activity [1]: 0.14 nM | Emax Values (%), Average, inhibition of IFNγ [4]: 56.7% | IC50 Values (pM), Geomean, inhibition of IFNγ [4]: 38.5 pM

B9: 820C3 (mouse IgG1 backbone) (antibody, V domains shown)
VH: QIQLQQSGPELVKTGASVKISCKASGNTFNSNYIQWVKQRPGQGLEWIGWIYPGDGSTNYSEKFKGKTTLTADKSSSTAYMLVSSLTSEDSAVYFCARYGPVPFDYWGQGTTLSVSS
VL: DIQMTQTTSSLSASLGDRVTISCSASQDIFNYLNWYQQKPDGTVKLLIYYTSSLHSGVPSRFSGSGSGTDFSLTISNLEPEDIATYYCQQYSNLPYTFGGGTKLEIK
Emax Values (%), inhibition of NFAT activity [1]: 48.7% | IC50 Values (nM), inhibition of NFAT activity [1]: 0.14 nM | Emax Values (%), Average, inhibition of IFNγ [2]: 82% | IC50 Values (pM), Average, inhibition of IFNγ [2]: 205 pM

B10: 703D10 (mouse IgG1 backbone) (antibody, V domains shown)
VH: QVQLQQPGAELVKPGASVKLSCKASGYSFTSYWMHWVRQRPGQGLEWIGDIDPSNSYAYHSQKFKGKATLTVDKSSSTAYMQLSSLTSEDSAVYFCARADGTSHWYFDVWGAGTAVTVSS
VL: QIVLTQSPGIMSASPGEKVTITCSANSSVSFMHWFQQKPGTSPKIWIYSTSSLASGVPARFSGSGSGTSYSLTISRMEAEDAATYYCQQRSSYPLTFGAGTKLELK
Emax Values (%), inhibition of NFAT activity [1]: 47.4% | IC50 Values (nM), inhibition of NFAT activity [1]: 10.9 nM | Emax Values (%), Average, inhibition of IFNγ [2]: 65% | IC50 Values (pM), Average, inhibition of IFNγ [2]: 3200 pM

B11: Chimeric 703D10 (antibody, V domains shown)
VH: QVQLQQPGAELVKPGASVKLSCKASGYSFTSYWMHWVRQRPGQGLEWIGDIDPSNSYAYHSQKFKGKATLTVDKSSSTAYMQLSSLTSEDSAVYFCARADGTSHWYFDVWGAGTAVTVSS
VL: QIVLTQSPGIMSASPGEKVTITCSANSSVSFMHWFQQKPGTSPKIWIYSTSSLASGVPARFSGSGSGTSYSLTISRMEAEDAATYYCQQRSSYPLTFGAGTKLELK
notes: Mouse variable domains in human IgG4Pro (Ser228Pro) backbone; also called 703D10 in human IgG4Pro backbone
Kd [3]: 9.49 nM | koff [3]: 0.000329 s⁻¹ | kon [3]: 34600 M⁻¹ s⁻¹ | Emax Values (%), inhibition of NFAT activity [1]: 41.9% | IC50 Values (nM), inhibition of NFAT activity [1]: 0.39 nM

B12: Antibody E (antibody, human IgG4 S228P, kappa, V domains shown)
VH: EVQLVESGGGLVQPGGSLRLSCAASGFTFSDYYMSWVRQAPGKGLEWVAYISSGGGSSYYPDLVKGRFTISRDNAKQSLYLQMQSLRAEDTAVYYCARLPHYFAMDYWGQGTLVTVSS
VL: DIQMTQSPSSLSASVGDRVTITCQASQSISSDYLHWYQQKPGKAPKLLIYRTSNLESGVPSRFSGSGSGTDFTFTISSLQPEDIATYYCQQGTSLPRAFGQGTKLEIKR
notes: Humanized 723C2, human IgG4Pro/kappa; also called 723C2-IgG4Pro-461-40 with IgK-462-08
Emax Values (%), Average, inhibition of IFNγ [4]: 47.8% | IC50 Values (pM), Geomean, inhibition of IFNγ [4]: 8.1 pM | Emax Values (%), Average, inhibition of IL-17A [5]: 59.2% | IC50 Values (pM), Geomean, inhibition of IL-17A [5]: 8.1 pM | Kd [6]: 2.77 nM | koff [6]: 0.000492 s⁻¹ | kon [6]: 178000 M⁻¹ s⁻¹ | Kd [7]: 38.2 nM | koff [7]: 0.00663 s⁻¹ | kon [7]: 173000 M⁻¹ s⁻¹

B13: Antibody B (antibody, human IgG4 S228P, kappa, V domains shown)
VH: EVQLVESGGGLVQPGGSLRLSCAASGFTFSDYYMSWVRQAPGKGLEWVAYISSGGGSSYYPDLVKGRFTISRDNAKNSLYLQMQSLRAEDTAVYYCARLPHYFAMDYWGQGTLVTVSS
VL: DIQMTQSPSSLSASVGDRVTITCQASQSISSDYLHWYQQKPGKAPKLLIYRTSNLETGVPSRFSGSGSGTDFTFTISSLQPEDIATYYCQQGTSLPRAFGQGTKLEIKR
notes: Humanized 723C2, human IgG4Pro/kappa; also called 723C2-IgG4Pro-461-41 with IgK-462-07
Emax Values (%), Average, inhibition of IFNγ [4]: 48.9% | IC50 Values (pM), Geomean, inhibition of IFNγ [4]: 18.4 pM | Emax Values (%), Average, inhibition of IL-17A [5]: 63.4% | IC50 Values (pM), Geomean, inhibition of IL-17A [5]: 25.3 pM | Kd [6]: 1.62 nM | koff [6]: 0.000421 s⁻¹ | kon [6]: 259000 M⁻¹ s⁻¹ | Kd [7]: 32.9 nM | koff [7]: 0.00558 s⁻¹ | kon [7]: 169000 M⁻¹ s⁻¹

Reference: US20260070984A1 (Boehringer Ingelheim, published 2026)
